These results are taken from article PMC3991680, “In Vitro Calcite Crystal Morphology Is Modulated by Otoconial Proteins Otolin-1 and Otoconin-90” (PLoS ONE, 2014).

Series [1] concerns the molecule itself. As to the kind of experiment: rotary shadowing electron microscopy; rmOtolin-1 adsorbed on mica, rapid freezing, freeze-drying, rotary shadowing.
Series [2] concerns the molecule itself. The series is described as follows: atomic force microscopy; 150 nM protein in 500 mM KCl deposited on freshly cleaved mica, incubated 48 hrs, in situ imaging in tapping mode.

B1: recombinant mouse Otolin-1-Flag (natural protein, UniProt Q4ZJM7 24-482, looked up)
chain: KTTPYTKFTKKSEGKEMLKGLKPSSGFFLDGEETVHTETAAMAEPTTGSPALAMAESTAGPSASATTRLLPFESFSLDTTGFVLNCCHCCSFVTGQKGEPGKMGKQGPKGETGDTGSPGHPGTTGPQGPKGQKGEKGLKGDRGDQGAGGIPGYPGKPGEQGALGPKGDKGTIGPAGTKGQKGSKGELCGNGTKGEKGDPGASGAHGFIGEPGAKGEKGGVGEKGYRGDLGERGEKGQKGEKGMEGEKGSRGDVGSEGKRGSDGLPGLRGDSGPKGEKGEIGSPGFTGPAGPKGELGSKGVRGPTGKKGSRGVKGSKGEATQVPQSAFSALLSKPFPPPNVPIKFDKILSNDQGDYSPVTGKFNCSVPGTYIFSYHVTVRGRPARISLVARNRKQFKSRETLYGQQVDQASLLLILKLSAGDQVWLEVSKDWNGLYVGPEDDSIFSGFLLYPEETFSKSP
notes: Otolin-1, mouse; cDNA amplified by RT-PCR from E16.5 mouse otocysts with primers from the start ATG to the last codon before the stop (FLAG added before the stop codon); secreted protein; The introduction calls rmOtolin-1 histidine tagged, the methods and results Flag tagged; also called rmOtolin-1; Flag tagged recombinant mouse Otolin-1; source: HEK293-T, stably transfected; not shown: FLAG, …
For the protein B1, the binding result in series [1] was “binds”.

B2: recombinant histidine tagged human Otolin-1 (natural protein, UniProt A6NHN0 24-477, looked up)
chain: KTTPHTKFTKKSEEREMPKGLKPSSGPPPEEEETLFTEMAEMAEPITKPSALDSVFGTATLSPFENFTLDPADFFLNCCDCCSPVPGQKGEPGETGQPGPKGEAGNLGIPGPPGVVGPQGPRGYKGEKGLKGERGDQGVPGYPGKPGAQGEPGPKGDKGNIGLGGVKGQKGSKGDTCGNCTKGEKGDQGAMGSPGLHGGPGAKGEKGEMGEKGEMGDKGCCGDSGERGGKGQKGEGGMKGEKGSKGDSGMEGKSGRNGLPGAKGDPGIKGEKGELGPPGLLGPTGPKGDIGNKGVRGPTGKKGSRGFKGSKGELARVPRSAFSAGLSKPFPPPNIPIKFEKILYNDQGNYSPVTGKFNCSIPGTYVFSYHITVRGRPARISLVAQNKKQFKSRETLYGQEIDQASLLVILKLSAGDQVWLEVSKDWNGVYVSAEDDSIFTGFLLYPEETSGISP
notes: Otolin-1, human; OmicsLink Expression-Ready Clone (pReceiver-M77 plasmid, GeneCopoeia) coding for human Otolin-1 with a C-terminal His tag; secreted protein; also called rhOtolin-1; human Otolin-1-His; source: HEK293-F (Freestyle Max 293), transfected; secreted into medium, purified (HisTrap); not shown: His tag, C-terminal, kept
With B2, in series [2], the binding result is given as “binds”.
